A word on the Kd: it is the equilibrium constant for the complex coming apart. A lower Kd goes with tighter binding. One may read the koff as the first-order rate constant of dissociation. Low readings indicate a long-lived complex, high ones a short-lived complex. Broadly, the kon is a measure of how fast the partners come together. Low values mean slower complex formation, high ones faster complex formation.

For the test, the target named is T1, D-二聚体抗原(购自菲鹏).
T1 chain 1: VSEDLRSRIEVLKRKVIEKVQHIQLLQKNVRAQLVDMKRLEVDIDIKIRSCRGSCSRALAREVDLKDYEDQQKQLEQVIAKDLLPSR
T1 chain 2: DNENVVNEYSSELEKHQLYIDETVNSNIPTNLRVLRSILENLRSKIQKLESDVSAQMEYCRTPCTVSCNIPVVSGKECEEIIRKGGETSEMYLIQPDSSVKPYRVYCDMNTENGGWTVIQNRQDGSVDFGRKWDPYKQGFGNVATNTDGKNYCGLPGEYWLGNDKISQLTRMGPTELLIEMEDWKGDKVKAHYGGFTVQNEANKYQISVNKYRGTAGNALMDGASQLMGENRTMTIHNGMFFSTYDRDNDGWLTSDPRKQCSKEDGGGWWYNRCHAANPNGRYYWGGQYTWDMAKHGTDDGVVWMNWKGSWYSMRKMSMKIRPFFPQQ
T1 chain 3: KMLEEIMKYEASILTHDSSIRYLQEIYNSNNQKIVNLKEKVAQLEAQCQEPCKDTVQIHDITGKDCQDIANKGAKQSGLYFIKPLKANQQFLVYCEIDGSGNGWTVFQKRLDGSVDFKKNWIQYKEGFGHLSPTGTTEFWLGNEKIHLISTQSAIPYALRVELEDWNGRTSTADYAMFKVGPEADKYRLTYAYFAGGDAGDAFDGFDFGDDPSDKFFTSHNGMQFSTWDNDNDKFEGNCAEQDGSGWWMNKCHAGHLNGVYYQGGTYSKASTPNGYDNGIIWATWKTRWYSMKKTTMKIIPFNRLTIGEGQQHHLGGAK
Description: BLI, AMC sensor, antibody immobilised, D-dimer antigen in serial dilution.

对照抗体 (antibody) registered a dissociation constant (Kd) of 21.4 nM, an off-rate (koff) of 0.000132 s⁻¹ and a kon of 6170 M⁻¹ s⁻¹.

B1: 14D2RMb-1 (antibody, mouse IgG2a, kappa)
heavy: QVQLQQSGPELVRPGVSVKISCKGSGYRFTDYSIHWLKQSHAKSLEWIGVISTYSGNPDYNQKFKGKATMTVDQSSSTAYMELARLTSDDSAIYYCSRMNDYYGDYFFDHWGQGTTLIVSSAKTTAPSVYPLAPVCGDTTGSSVTLGCLVKGYFPEPVTLTWNSGSLSSGVHTFPAVLQSDLYTLSSSVTVTSSTWPSQSITCNVAHPASSTKVDKKIEPRGPTIKPCPPCKCPAPNLLGGPSVFIFPPKIKDVLMISLSPIVTCVVVDVSEDDPDVQISWFVNNVEVHTAQTQTHREDYNSTLRVVSALPIQHQDWMSGKEFKCKVNNKDLPAPIERTISKPKGSVRAPQVYVLPPPEEEMTKKQVTLTCMVTDFMPEDIYVEWTNNGKTELNYKNTEPVLDSDGSYFMYSKLRVEKKNWVERNSYSCSVVHEGLHNHHTTKSFSRTPGK
light: DVVMTQTPLSLFVDLGDPASISCRSSQSLVHTNGNTYLHWYLQKPGQSPRLLIYKVSNRFSGVPDRFSGSGSGTDFTFKISSVEAEDLGLYFCSQSRHVPLTFGAGTKLELKRADAAPTVSIFPPSSEQLTSGGASVVCFLNNFYPKDINVKWKIDGSERQNGVLNSWTDQDSKDSTYSMSSTLTLTKDEYERHNSYTCEATHKTSTSPIVKSFNRNEC
notes: Recombinant monoclonal antibody made in CHO cells from hybridoma genes; also called 14D2RMb-1抗体
B1: binding was put at a Kd of 9.9 nM, the koff came to 0.00545 s⁻¹ and the kon worked out at 550000 M⁻¹ s⁻¹.

(Values after patent publication CN116143917A (DONGGUAN PENGZHI BIOTECHNOLOGY CO LTD, dated 2023).)
